Experimental data published in paper PMC3433037.
Blank lines part the entries; values can stand above or below the substance they belong to.

Experiments:
Assay in all cases: SEC
[1] = target: Δ4-ClpP (Escherichia coli)
[2] = target: Δ6-ClpP (Escherichia coli)
[3] = target: Δ10-ClpP (Escherichia coli)
[4] = target: Δ14-ClpP (Escherichia coli)
[5] = target: Δ17-ClpP (Escherichia coli)

stoichiometry N [1]: 14
Substance: Δ4-ClpP (domain or fragment)

stoichiometry N [2]: 14
Substance: Δ6-ClpP (domain or fragment)

stoichiometry N [3]: 14
Substance: Δ10-ClpP (domain or fragment)

stoichiometry N [4]: 14
Substance: Δ14-ClpP (domain or fragment)

stoichiometry N [5]: 14
Substance: Δ17-ClpP (domain or fragment)
